Experiment [1] concerns the target T1, human RAGE-Fc fusion protein (human, UniProt Q15109 23-344).
T1 construct: also called hRAGE-Fc; huRAGE-Fc; not shown: Fc domain of human IgG
The experiment can be described thus: direct binding ELISA, receptor coated at 1 µg/ml, antibody at 20 µg/ml. The procedure: (§1) These receptors were chosen because they are cell-surface expressed, like RAGE, and their interaction with ligand is similarly dependent on charge. […] ELISA plates were coated overnight with 1 μg/ml of the listed receptor proteins.
(In an ELISA, binding on a coated surface is turned into a signal by an enzyme label.)

The target of experiment [2] is T2, rhVCAM-1 (human, UniProt P19320 25-698).
T2 sequence (looked up): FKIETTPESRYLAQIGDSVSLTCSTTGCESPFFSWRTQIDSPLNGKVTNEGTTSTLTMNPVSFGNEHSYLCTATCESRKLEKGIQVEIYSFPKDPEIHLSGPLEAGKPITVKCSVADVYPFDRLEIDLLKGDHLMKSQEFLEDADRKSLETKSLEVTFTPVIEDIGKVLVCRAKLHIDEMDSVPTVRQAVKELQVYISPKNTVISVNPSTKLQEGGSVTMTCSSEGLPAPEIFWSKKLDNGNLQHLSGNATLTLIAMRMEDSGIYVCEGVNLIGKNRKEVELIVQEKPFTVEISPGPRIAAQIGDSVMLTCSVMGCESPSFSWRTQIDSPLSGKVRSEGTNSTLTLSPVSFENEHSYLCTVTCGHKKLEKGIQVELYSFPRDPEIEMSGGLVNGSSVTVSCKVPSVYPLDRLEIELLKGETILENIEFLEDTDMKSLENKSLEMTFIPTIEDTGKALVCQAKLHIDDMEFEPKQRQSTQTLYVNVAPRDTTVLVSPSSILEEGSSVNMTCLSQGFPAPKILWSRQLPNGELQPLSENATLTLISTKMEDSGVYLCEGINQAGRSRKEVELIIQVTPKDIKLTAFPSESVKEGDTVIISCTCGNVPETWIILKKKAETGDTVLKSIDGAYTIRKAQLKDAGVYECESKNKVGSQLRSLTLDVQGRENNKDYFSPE
Described as above. The procedure:
as §1

Experiment [3] concerns the target T3, rhICAM-1-Fc (human, UniProt P05362 28-480).
T3 construct: also called rhlCAM-1-Fc; not shown: Fc part not described
The experiment is described as above. The procedure: as §1

The target in experiment [4] is rhTLR4 (C-terminal His tag) (human, UniProt O00206 24-631). The description is as above. The procedure:
as §1

The target of experiment [5] is rhNCAM-1 (human, UniProt P13591-3 20-603, limits assumed). The description is as above. The procedure: as §1
In experiment [6] the target is T4, rhB7-H1-Fc (human, UniProt Q9NZQ7 19-239).
T4 construct: not shown: Fc part not described
Described as above. The procedure: as §1

The target in experiment [7] is T5, mLox1-Fc (mouse, UniProt Q9EQ09 60-363).
T5 construct: also called mLoxl-Fc; not shown: Fc part not described
The description is as above. The procedure:
as §1

For experiment [8], the target named is hLox1-Fc (human, UniProt P78380 61-273). Described as above. The procedure: as §1
The target in experiment [9] is T1, human RAGE-Fc fusion protein. The experiment can be described thus: ELISA, coated hRAGE-Fc. The procedure:
(§2) Antibodies were purified from hybridoma supernatants using standard procedures. Purified antibodies were evaluated for binding to soluble forms of RAGE with the use of ELISA. […] After washing and blocking with PBS containing 1% BSA and 0.05% Tween-20, 100 ul of sample (samples were in several forms: diluted immune serum, hybridoma supernatants, or purified antibodies, as indicated) was added and incubated for 1 hour at room temperature. The plates were washed with PBS, pH 7.2 and bound anti-RAGE antibodies were detected with the use of peroxidase-conjugated goat, anti-mouse IgG (H+L) (IgG) (Pierce, Rockford, Ill.) followed by incubation with the substrate TMB (BioFX Laboratories Owings Mills, Md. Laboratories). Absorbance values were determined at 450 nm in a spectrophotometer. The concentrations of monoclonal antibodies were determined with the use of peroxidase-labeled goat, anti-mouse IgG (Fcγ) (Pierce Rockford, Ill.) and a standard curve was generated by a purified, isotype-matched mouse IgG.

The target in experiment [10] is T6, human RAGE, full length (human, UniProt Q15109 23-404).
T6 construct: Expressed on 293 or CHO cells, or endogenous in human lung sections; also called hRAGE; cell-surface hRAGE
The experiment can be described thus: FACS, 293 cells infected with human RAGE adenovirus. The procedure:
Human 293 cells were infected with the human and murine RAGE adenovirus. Infected cells were suspended in PBS containing 1% BSA at a density of 4×10⁴ cells/ml. Cells were incubated with 100 ul of sample (diluted immune sera, hybridoma supernatants or purified antibodies) for 30 min at 4° C. After washing, cells were incubated with PE-labeled goat, anti-mouse, IgG, F(ab′)₂ (DAKO Corporation GlostrupDenmark) for 30 min at 4° C. in the dark. Cell-associated fluorescence signals were measured by a FACScan flow cytofluorometer (Becton Dickinson) using 5000 cells per treatment. Propidium iodide was used to identify dead cells, which were excluded from the analysis.
A general note: In flow cytometry, cells or beads pass a laser one at a time.

In experiment [11] the target is T1, human RAGE-Fc fusion protein. Briefly: direct binding ELISA, coated hRAGE-Fc. The procedure: as §2
For experiment [12], the target named is T7, human RAGE V-region-Fc fusion protein (human, UniProt Q15109 23-118).
T7 construct: also called hRAGE V-domain-Fc; hRAGE-V-Fc (CM); not shown: Fc domain of human IgG
The experiment can be described thus: direct binding ELISA, coated hRAGE V-region-Fc. The procedure:
as §2

Experiment [13] concerns the target T1, human RAGE-Fc fusion protein. The experiment can be described thus: BIACORE direct binding, hRAGE-Fc immobilized. The procedure:
The binding of selected murine and rat anti-RAGE antibodies to human and murine RAGE and to the V domains of human and murine RAGE was analyzed by BIACORE® direct binding assay. […] Solution of the anti-RAGE antibodies at two concentrations, 50 and 100 nm, were run over the immobilized RAGE-Fc proteins in duplicate. BIACORE™ technology utilizes changes in the refractive index at the surface layer upon binding of the anti-RAGE antibodies to the immobilized RAGE antigen. Binding is detected by surface plasmon resonance (SPR) of laser light refracting from the surface.
The kinetic rate constants (kₐ and kd) and association and dissociation constants (Kₐ and Kd) for the binding of murine and rat anti-RAGE antibodies to human and murine RAGE were determined by BIACORE™ direct binding assay. Analysis of the signal kinetics data for on-rate and off-rate allows the discrimination between non-specific and specific interactions.

Experiment [14] concerns the target T8, soluble human streptavidin-tagged RAGE (human, UniProt Q15109 23-344).
T8 construct: also called hRAGE-SA; human RAGE-strep
The experiment can be described thus: BIACORE capture assay, antibody on CM5 chip, hRAGE-SA 0-100 nM in solution. The procedure: The assays were performed by coating antibodies onto a CM5 BIA chip with 5000-7000 RU.
(In general: SPR reads the build-up and loss of mass on a sensor chip optically.)

Experiment [15] concerns the target T1, human RAGE-Fc fusion protein. The experiment can be described thus: ligand competition ELISA: HMGB1 coated, hRAGE-Fc pre-mixed with mAb, anti-huIgG-HRP; blocked ligand HMGB1. The procedure: Wells were washed and blocked as described above and exposed to 100 μl of pre-incubated mixtures of RAGE-Fc or TrkB-Fc (a non-specific Fc control), at 0.1 μg/ml, plus various forms of the indicated antibody preparation (dilutions of immune sera, hybridoma supernatants or purified antibodies) for 1 hour at room temperature.

Experiment [16] shares this target. Briefly: antibody competition ELISA on hRAGE-Fc; competitor biotinylated XT-M4; sheet note: N52D (labeled N71D) is glycosylation mutant in CDR2 of HC. The procedure: ELISA plates were coated overnight with 1 ug/ml human RAGE-Fc. […] Briefly, plates were coated overnight with 1 ug/ml human RAGE-Fc.

Substitutions are numbered along the chain they refer to. In names and notes the source's numbering stands.

Sequence of rhTLR4 (C-terminal His tag) (O00206 24-631 limits assumed): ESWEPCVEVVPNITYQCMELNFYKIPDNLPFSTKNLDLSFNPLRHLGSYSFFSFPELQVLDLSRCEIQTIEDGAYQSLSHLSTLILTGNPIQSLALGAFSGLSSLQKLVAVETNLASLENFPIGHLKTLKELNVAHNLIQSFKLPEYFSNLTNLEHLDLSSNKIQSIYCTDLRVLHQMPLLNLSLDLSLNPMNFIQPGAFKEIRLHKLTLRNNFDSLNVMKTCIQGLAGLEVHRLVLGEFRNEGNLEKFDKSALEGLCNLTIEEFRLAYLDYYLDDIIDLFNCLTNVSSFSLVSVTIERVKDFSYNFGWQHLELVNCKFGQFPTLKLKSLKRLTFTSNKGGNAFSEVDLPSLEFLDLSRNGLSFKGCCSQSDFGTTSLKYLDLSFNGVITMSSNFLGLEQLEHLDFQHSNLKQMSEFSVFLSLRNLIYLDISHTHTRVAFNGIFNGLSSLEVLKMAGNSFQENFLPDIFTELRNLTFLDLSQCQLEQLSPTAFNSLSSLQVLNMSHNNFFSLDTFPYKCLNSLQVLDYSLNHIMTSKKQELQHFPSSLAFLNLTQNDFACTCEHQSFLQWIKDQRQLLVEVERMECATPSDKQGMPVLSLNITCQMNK
T5 sequence (Q9EQ09 60-363): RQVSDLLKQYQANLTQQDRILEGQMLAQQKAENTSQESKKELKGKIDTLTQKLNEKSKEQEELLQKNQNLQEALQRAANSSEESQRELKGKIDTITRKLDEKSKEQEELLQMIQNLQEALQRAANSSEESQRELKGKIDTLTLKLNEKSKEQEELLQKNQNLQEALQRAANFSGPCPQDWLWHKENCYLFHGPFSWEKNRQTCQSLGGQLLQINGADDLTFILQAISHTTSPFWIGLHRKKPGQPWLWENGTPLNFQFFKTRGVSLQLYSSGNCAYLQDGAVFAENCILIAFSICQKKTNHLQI
Sequence of rhNCAM-1 (P13591 other isoform, or with tags, fused parts or gaps limits assumed): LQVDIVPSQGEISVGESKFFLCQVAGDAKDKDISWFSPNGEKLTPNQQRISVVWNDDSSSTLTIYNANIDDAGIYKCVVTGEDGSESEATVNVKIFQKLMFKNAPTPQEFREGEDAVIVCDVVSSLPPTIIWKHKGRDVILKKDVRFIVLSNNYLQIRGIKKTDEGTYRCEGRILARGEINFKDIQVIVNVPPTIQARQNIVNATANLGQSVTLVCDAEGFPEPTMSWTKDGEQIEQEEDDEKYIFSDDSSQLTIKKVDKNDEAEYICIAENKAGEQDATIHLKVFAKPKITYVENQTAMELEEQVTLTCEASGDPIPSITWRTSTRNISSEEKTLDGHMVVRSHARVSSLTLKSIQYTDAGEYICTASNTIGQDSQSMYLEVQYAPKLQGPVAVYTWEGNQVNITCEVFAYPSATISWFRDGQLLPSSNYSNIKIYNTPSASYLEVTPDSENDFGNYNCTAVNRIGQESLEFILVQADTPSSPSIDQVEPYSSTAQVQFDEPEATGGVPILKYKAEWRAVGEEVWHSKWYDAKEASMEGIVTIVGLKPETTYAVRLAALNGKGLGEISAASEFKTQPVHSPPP
T4 sequence (Q9NZQ7 19-239): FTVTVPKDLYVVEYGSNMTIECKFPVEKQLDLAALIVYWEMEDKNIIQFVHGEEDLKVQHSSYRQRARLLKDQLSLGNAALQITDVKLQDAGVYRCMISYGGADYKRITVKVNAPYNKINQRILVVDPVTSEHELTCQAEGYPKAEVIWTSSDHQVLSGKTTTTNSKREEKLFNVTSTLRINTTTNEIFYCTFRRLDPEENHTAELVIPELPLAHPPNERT
T3 sequence (P05362 28-480): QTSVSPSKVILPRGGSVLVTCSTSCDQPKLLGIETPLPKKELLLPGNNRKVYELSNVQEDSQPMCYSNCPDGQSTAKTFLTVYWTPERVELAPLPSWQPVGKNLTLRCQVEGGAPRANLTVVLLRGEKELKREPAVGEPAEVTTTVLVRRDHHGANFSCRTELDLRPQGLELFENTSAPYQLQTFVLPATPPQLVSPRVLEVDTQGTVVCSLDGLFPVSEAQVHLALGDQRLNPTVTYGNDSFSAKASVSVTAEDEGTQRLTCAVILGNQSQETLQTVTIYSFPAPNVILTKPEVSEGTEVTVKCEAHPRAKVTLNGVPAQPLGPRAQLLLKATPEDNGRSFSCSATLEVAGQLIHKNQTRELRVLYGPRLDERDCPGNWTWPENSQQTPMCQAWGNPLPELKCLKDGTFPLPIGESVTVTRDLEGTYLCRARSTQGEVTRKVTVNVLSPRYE

B1: XT-M4-hVH-V2.0-2m/hVL-V2.10 (antibody, V domains shown)
VH: EVQLVESGGGLVQPGGSLRLSCAASGFTFNNYWMTWVRQAPGKGLEWVASIDNSGDNTYYPDSVKDRFTISRDNAKNSLYLQMNSLRAEDTAVYYCARGGDITTGFDYWGQGTLVTVSS
VL: DIQMTQSPSSLSASVGDRVTITCRASQDVGIYVNWFQQKPGKAPKRLIYRATNLADGVPSRFSGSGSGTDFTLTISSLQPEDFATYYCLEFDEHPLTFGGGTKVEIK
notes: '2m' is not explained; also called XT-M4-hVH-2.0-2m/hVL-V2.10
Take B1: the OD450 in [1] turned out to be 3.81; in [2] it was 0.01; in experiment [3], 0.007; in [4], 0.001; in experiment [5], 0.004; in [6] it was 0.01. Also, the OD450 in experiment [7] amounted to 0.016; in [8], 0.007.

B2: XT-M4-hVH-V2.0-2m/hVL-V2.11 (antibody, V domains shown)
VH: B1 VH
VL: B1 VL with K45R, G66R
notes: '2m' is not explained
Consider B2, for which the OD450 in [1] was 3.83; in experiment [2], 0.012; in experiment [3], 0.004; in experiment [4] it was 0.003; in experiment [5], 0.011; in experiment [6] it was 0.009. The results for the OD450 in [7] and in experiment [8] were 0.01 and 0.022, respectively.

B3: XT-H7 (antibody, mouse IgG1, V domains shown)
VH: QVQLKESGPGLVAPSQSLSITCTVSGFSLTNYGVHWVRQPPGKGLEWLGVMWAGGSTTYNSALMSRLSISKDNSKSQVFLKMNSLQTDDTAMYYCARYGNYAMDYWGQGTSVTVSS
VL: DIQMTQSPSSLSASLGGKVTITCKASQDIYKYIAWYQHKPGKGPRLLIHYTSTLQPGIPSRFSGSGSGRDYSFSISNLEPEDIATYYCLRYDNLYTFGGGTKLEIK
notes: also called 1hRAGEP3/66
B3: the binding result in [9] and in experiment [10] was “binds” each time.

B4: XT-H2 (antibody, mouse IgG1, V domains shown)
VH: QVQLQQSGAELAKPGASVKMSCKASGYTFTTYWMHWVKQRPGQGLYWIGYINPSTGYTEYNQKFKDKATLTADKSSSTAYMQLSSLTSEDSAVYYCARWAGYTIDYWGQGTSVTVSS
VL: DVVLTQTPLSLPVNIGDQASISCKSTKSLLNSDGFTYLDWYLQKPGQSPQLLIYLVSDRFSGVPDRFSGSGSGTDFTLTISRVEAEDLGVYYCFQSNSLPLTFGSGTKLEIK
notes: also called 1hRAGEP3/16; murine anti-huRAGE monoclonal antibody XT-H2
As to B4, a half-maximal response in experiment [11] (EC50) required 0.09 nM. Also, a half-maximal effect in experiment [12] (EC50) was put at 0.1 nM. In experiment [13], this molecule registered a Ka of 1.14e+10 M⁻¹, a Kd of 0.0876 nM, a dissociation rate constant (koff) of 0.000504 s⁻¹ and an on-rate constant (kon) of 5.76e+06 M⁻¹ s⁻¹. In [14], the Ka was found to be 9.48e+08 M⁻¹, the Kd came out at 1.06 nM, the off-rate constant (koff) was determined as 0.00116 s⁻¹ and the kon was 1.1e+06 M⁻¹ s⁻¹. The “IC50 (read off the curve)” value in [15] was ~0.2 µg/mL.

B5: XT-H3 (antibody, mouse IgG1, V domains shown)
VH: QVQLQQPGSELVRPGASVKLSCKTSGYTFTNYWMHWVKQRHGQGLEWIGNLYPGSGRTNYDEKFKSKVTLTEDTSSSTAYMHLSNLTSEDSAVYYCTSLRRGFVYWGQGTLVTVSA
VL: NIVMTQSPEYMSMSFGERVTLTCKASENVGSYVSWYQQKSEQSPKLLIYGASNRYTGVPDRFTGSGSATDFTLTITSVQAEDLADYHCGQTYTYPYTFGGGTKLEIK
notes: also called 1hRAGEP3/18
Turning to B5, the binding result in experiment [9] and in experiment [10] was “binds” throughout.

B6: XT-M4 with N52D in the heavy chain variable region (antibody, name in Kabat numbering, V domains shown)
VH: EVQLVESGGGLVQPGRSLKLSCVVSGFTFNNYWMTWIRQTPGKGLEWVASIDNSGDNTYYPDSVKDRFTISRDNAKSTLYLQMNSLRSEDTATYYCTRGGDITTGFDYWGQGVMVTVSS
VL: DIQMTQSPSSMSVSLGDTITITCRASQDVGIYVNWFQQKPGKSPRRMIYRATNLADGVPSRFSGSRSGSIYSLTISSLESEDVADYHCLEFDEHPLTFGSGTKVEIK
notes: Removes the glycosylation site in CDR2; also called XT-M4 N52D
Take B6: the “IC50 (read off the curve)” value in experiment [16] was ~0.1 µg/mL.

A word on the EC50: it is the concentration at which the effect is half-maximal. A high value points to lower potency in that assay. As a reminder, the Kd is the equilibrium constant for the complex coming apart. A low value points to tighter binding. Broadly, the koff is a measure of how fast the partners let go of each other. By kon is commonly meant the second-order rate constant of association. High values mean faster complex formation, low ones slower complex formation.

These data come from US20070286858A1 (Pfizer, published 2007).
